Experimental data taken from the supplement of paper PMC10126150.
± gives the standard deviation of the averaged measurements.

Test system: ATP
Experiment: switch fluorescence ratio, 500 uM ATP over buffer (Cy3 cluster intensity, sum of 5 cycles each) (fold (ratio)); higher = stronger signal-on switching upon ATP binding; sequences stand for … in TCGTCGGCAGCGTCAGATGTGTATAAGAGACAGTTTTTTTTTTTTTTTTTTTTTTTTT…TC
Conditions: aptamer strand: ATP DNA aptamer (quencher-CACCTGGGGGAGTATTGCGGAGGAAGG + anchor), 100 nM annealed; ATP concentration: 500 uM
Procedure, shortened: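 Clusters carrying Cy3-labelled switching strands on a modified Illumina MiSeq flow-cell were annealed to 100 nM quencher-labelled ATP aptamer and imaged in selection buffer. They were imaged again after 15 min with 500 uM ATP at 22 °C, over five buffer/ATP cycles with NaOH stripping and re-annealing in between. For each cluster, the fluorescence ratio is the summed Cy3 intensity of the target cycles divided by that of the buffer cycles, averaged per switch-domain sequence. Clusters outside 100-1000 RFU were left out.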
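Further: ATP exposure 15 min at 22 °C before imaging.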

Row | Sequence | switch fluorescence ratio
1 | AGTCGGTGGA | 1 ± 0.011
2 | AGTCGTGGGC | 0.98 ± 0.041
3 | AGTCGTGTGT | 0.971 ± 0.046
4 | AGTCGTTGGA | 0.96555 ± 0.00011
5 | AGTCTAGATA | 1.0302 ± 0.00084
6 | AGTCTGAGCG | 1.03 ± 0.024
7 | AGTCTGGGGA | 0.99 ± 0.015
8 | AGTCTTAATA | 0.986 ± 0.034
9 | AGTGACCTAG | 1.017 ± 0.0039
10 | AGTGACGCGT | 1.007 ± 0.0033
11 | AGTGACTTTT | 0.9961 ± 0.0089
12 | AGTGAGAATT | 1.013 ± 0.01
13 | AGTGAGCAGG | 1.11 ± 0.015
14 | AGTGATTGCA | 1.007 ± 0.004
15 | AGTGCACGTG | 1 ± 0.061
16 | AGTGCATTCT | 0.995 ± 0.049
17 | AGTGCCGGCA | 1.02 ± 0.051
18 | AGTGCGCTAT | 1.03 ± 0.01
19 | AGTGCGGAAG | 1.04 ± 0.066
20 | AGTGCGTCTT | 1.01 ± 0.021
21 | AGTGCTGATG | 0.998 ± 0.02
22 | AGTGCTGCGA | 1.02 ± 0.044

Row | Sequence | switch fluorescence ratio
23 | AGTGCTGTTC | 0.929 ± 0.082
24 | AGTGGAAATT | 1.01 ± 0.049
25 | AGTGGACAGC | 1 ± 0.031
26 | AGTGGACTAG | 0.989 ± 0.026
27 | AGTGGAGCGG | 0.995 ± 0.016
28 | AGTGGAGGT | 0.97 ± 0.041
29 | AGTGGCACCG | 1.01 ± 0.015
30 | AGTGGCATTA | 0.985 ± 0.028
31 | AGTGGCCGTC | 0.974 ± 0.051
32 | AGTGGCGTTC | 1.01 ± 0.073
33 | AGTGGCTATC | 1.01 ± 0.018
34 | AGTGGGAGAG | 1.02 ± 0.06
35 | AGTGGGAGTA | 1.05 ± 0.052
36 | AGTGGGGGGC | 0.998 ± 0.02
37 | AGTGGGGGTA | 0.995 ± 0.028
38 | AGTGGGTATT | 1.01 ± 0.016
39 | AGTGGGTTCA | 0.9842 ± 0.0034
40 | AGTGGTCCTT | 0.974 ± 0.047
41 | AGTGGTGGG | 1.02 ± 0.068
42 | AGTGGTGGGG | 0.966 ± 0.014
43 | AGTGGTTCGC | 1.01 ± 0.024
44 | AGTGGTTGAA | 0.99 ± 0.028

Row | Sequence | switch fluorescence ratio
45 | AGTGTAAAAA | 1.04 ± 0.078
46 | AGTGTAAAGG | 0.991 ± 0.076
47 | AGTGTGATCA | 0.9859 ± 0.008
48 | AGTGTGCGGT | 0.9491 ± 0.0089
49 | AGTGTGTCGG | 0.974 ± 0.067
50 | AGTGTGTCTT | 0.9877 ± 0.004
51 | AGTGTGTTAT | 0.974 ± 0.011
52 | AGTGTTAGTT | 1 ± 0.024
53 | AGTTAAGGCC | 1.09 ± 0.092
54 | AGTTAATGTT | 1.01 ± 0.0026
55 | AGTTACAGCT | 1.03 ± 0.032
56 | AGTTACAGGG | 1.05 ± 0.019
57 | AGTTAGACGA | 1.01 ± 0.013
58 | AGTTAGGGCA | 0.988 ± 0.042
59 | AGTTAGGGGT | 0.987 ± 0.02
60 | AGTTAGGGTC | 1 ± 0.012
61 | AGTTAGGTAG | 0.9939 ± 0.0081
62 | AGTTAGTCTG | 1.01 ± 0.04
63 | AGTTAGTGAC | 1.02 ± 0.024
64 | AGTTATAAGT | 0.979 ± 0.01
65 | AGTTATAATT | 1.005 ± 0.0076
66 | AGTTATATGT | 0.985 ± 0.037

Row | Sequence | switch fluorescence ratio
67 | AGTTATCAGG | 1.06 ± 0.024
68 | AGTTATTAGG | 1.02 ± 0.032
69 | AGTTCAGTAT | 0.983 ± 0.019
70 | AGTTCGGGGA | 0.992 ± 0.014
71 | AGTTCGTAGA | 0.966 ± 0.048
72 | AGTTGAGCAG | 1.02 ± 0.021
73 | AGTTGAGGGG | 0.985 ± 0.034
74 | AGTTGATCCA | 0.982 ± 0.015
75 | AGTTGCGGGA | 1.0114 ± 0.00031
76 | AGTTGGAAAA | 0.997 ± 0.01
77 | AGTTGGAGGA | 0.991 ± 0.015
78 | AGTTGGGGAT | 0.986 ± 0.04
79 | AGTTGGGGGT | 0.998 ± 0.025
80 | AGTTGGGGTG | 0.989 ± 0.034
81 | AGTTGGTAAT | 0.963 ± 0.06
82 | AGTTGGTTAG | 1.004 ± 0.005
83 | AGTTGTCTCG | 1.01 ± 0.058
84 | AGTTGTTGGA | 1 ± 0.047
85 | AGTTTAAAAC | 1.02 ± 0.0077
